Consider three proteins from paper PMC8805389, “High-level production of the agmatine in engineered Corynebacterium crenatum with the inhibition-releasing arginine decarboxylase” (Microbial Cell Factories, 2022).

Where a chain is given by its changes, count along the chain named. Numbers in names are those of the source.

Substrate in the series “purified protein”: N=C(N)NCCC[C@H](N)C(=O)O
The series is described as follows: purified protein. Particulars: 50 mM Tris-HCl pH 8.0, 2.5 mM MgSO4, 0.6 mM PLP, 37 °C.

Substrate in series [1]: N=C(N)NCCC[C@H](N)C(=O)O
As to the kind of experiment: arginine decarboxylase activity, agmatine by HPLC. The series is classed as biochemical, Escherichia coli. The following applies: 50 mM Tris-HCl pH 8.0, 2.5 mM MgSO4, 0.6 mM PLP, 37 °C. An excerpt:
arginine decarboxylase activity, agmatine by HPLC on SpeA

B1: SpeA (Escherichia coli K-12) (protein)
chain: MSDDMSMGLPSSAGEHGVLRSMQEVAMSSQEASKMLRTYNIAWWGNNYYDVNELGHISVCPDPDVPEARVDLAQLVKTREAQGQRLPALFCFPQILQHRLRSINAAFKRARESYGYNGDYFLVYPIKVNQHRRVIESLIHSGEPLGLEAGSKAELMAVLAHAGMTRSVIVCNGYKDREYIRLALIGEKMGHKVYLVIEKMSEIAIVLDEAERLNVVPRLGVRARLASQGSGKWQSSGGEKSKFGLAATQVLQLVETLREAGRLDSLQLLHFHLGSQMANIRDIATGVRESARFYVELHKLGVNIQCFDVGGGLGVDYEGTRSQSDCSVNYGLNEYANNIIWAIGDACEENGLPHPTVITESGRAVTAHHTVLVSNIIGVERNEYTVPTAPAEDAPRALQSMWETWQEMHEPGTRRSLREWLHDSQMDLHDIHIGYSSGIFSLQERAWAEQLYLSMCHEVQKQLDPQNRAHRPIIDELQERMADKMYVNFSLFQSMPDAWGIDQLFPVLPLEGLDQVPERRAVLLDITCDSDGAIDHYIDGDGIATTMPMPEYDPENPPMLGFFMVGAYQEILGNMHNLFGDTEAVDVFVFPDGSVEVELSDEGDTVADMLQYVQLDPKTLLTQFRDQVKKTDLDAELQQQFLEEFEAGLYGYTYLEDE
The term Km denotes the substrate concentration at which the rate is half of its maximum. Broadly, the kcat is the number of substrate molecules converted per active site and unit of time at saturation. In general, kcat/Km refers to the turnover number divided by the Michaelis constant. In the case of B1, in “purified protein”, the Km was found to be 602 ± 92 µM, the kcat was 1.79 ± 0.135 s⁻¹ and the kcat/Km came to 2970 M⁻¹ s⁻¹.

B2: SpeA (Escherichia coli K-12; I534D) (protein)
chain: B1 chain with I534D
notes: C-terminal His-tag; expressed in E. coli BL21(DE3) from pXMJ19; HisTrap purified; tetramer (two dimers)
On to B2, for which, in series [1], the Michaelis constant (Km) came to 623 ± 75 µM, the turnover number (kcat) amounted to 2.64 ± 0.328 s⁻¹ and the kcat/Km was 4240 M⁻¹ s⁻¹.

B3: SpeA (Escherichia coli K-12; I534S) (protein)
chain: B1 chain with I534S
notes: as for B2
As to B3, in series [1], the Km amounted to 691 ± 69 µM, the kcat is 2.12 ± 0.206 s⁻¹ and the kcat/Km was found to be 3070 M⁻¹ s⁻¹.
